According to article PMC9433777:

Tests used:
[1] = target: HIV-1 envelope Q842.d12 (subtype A) (HIV-1)
[2] = target: HIV-1 envelope CAP214.15 (subtype C) (HIV-1)
[3] = target: HIV-1 envelope ZM197.7 (subtype C) (HIV-1)
[4] = target: HIV-1 envelope 6535 (subtype B) (HIV-1)
[5] = target: HIV-1 envelope Q461.e2 (subtype A) (HIV-1)
[6] = target: HIV-1 envelope Q168.a2 (subtype A) (HIV-1)
[7] = target: HIV-1 envelope TRO.11 (subtype B) (HIV-1)
[8] = target: HIV-1 envelope Du422.01 (subtype C) (HIV-1)
[9] = target: HIV-1 envelope Du172.17 (subtype C) (HIV-1)
[10] = target: HIV-1 envelope CAP210.E8 (subtype C) (HIV-1)
[11] = target: HIV-1 envelope Du156.12 (subtype C) (HIV-1)
[12] = target: HIV-1 envelope CAP45.G3 (subtype C) (HIV-1)
[13] = target: HIV-1 envelope ZM233.6 (subtype C) (HIV-1)
[14] = target: HIV-1 envelope QH0692.42 (subtype B) (HIV-1)
[15] = target: HIV-1 envelope Q23.17 (subtype A) (HIV-1)

Row | Substance | IC50 of neutralisation of HIV-1 pseudovirus, TZM-bl assay [1] [µg/mL] | IC50 of neutralisation of HIV-1 pseudovirus, TZM-bl assay [2] [µg/mL] | IC50 of neutralisation of HIV-1 pseudovirus, TZM-bl assay [3] [µg/mL] | IC50 of neutralisation of HIV-1 pseudovirus, TZM-bl assay [4] [µg/mL] | IC50 of neutralisation of HIV-1 pseudovirus, TZM-bl assay [5] [µg/mL] | IC50 of neutralisation of HIV-1 pseudovirus, TZM-bl assay [6] [µg/mL] | IC50 of neutralisation of HIV-1 pseudovirus, TZM-bl assay [7] [µg/mL] | IC50 of neutralisation of HIV-1 pseudovirus, TZM-bl assay [8] [µg/mL] | IC50 of neutralisation of HIV-1 pseudovirus, TZM-bl assay [9] [µg/mL] | IC50 of neutralisation of HIV-1 pseudovirus, TZM-bl assay [10] [µg/mL] | IC50 of neutralisation of HIV-1 pseudovirus, TZM-bl assay [11] [µg/mL] | IC50 of neutralisation of HIV-1 pseudovirus, TZM-bl assay [12] [µg/mL] | IC50 of neutralisation of HIV-1 pseudovirus, TZM-bl assay [13] [µg/mL] | IC50 of neutralisation of HIV-1 pseudovirus, TZM-bl assay [14] [µg/mL] | IC50 of neutralisation of HIV-1 pseudovirus, TZM-bl assay [15] [µg/mL]
1 | CAP256-VRC26.25 produced in N. benthamiana (ΔXTFT) without Cas9/sgRNAs coexpression (antibody) | > 50 | 4.31 | 0.056 | > 50 | 1.73 | 2.94 | > 50 | 0.1 | > 50 | 0.0015 | 0.034 | 0.0014 | 0.0042 | > 50 | 0.0016
2 | CAP256-VRC26.25 produced in HEK293 (antibody) | > 50 | 3.12 | 0.11 | > 50 | 0.67 | 1.73 | > 50 | 0.11 | > 50 | 0.0012 | 0.15 | 0.0013 | 0.0044 | > 50 | 0.0014
3 | CAP256-VRC26.25 produced in N. benthamiana (ΔXTFT) with Cas9/sgRNAs coexpression (antibody) | > 50 | 2.77 | 0.098 | > 50 | 1.61 | 3.05 | > 50 | 0.2 | > 50 | 0.0014 | 0.041 | 0.0013 | 0.005 | > 50 | 0.0016
